Positions count from the first letter of the chain named.
Experiments:
Experiment in all cases: pull-down; GST-yNpl4 (0.5 μM, wild type or mutant) on Glutathione Sepharose 4B beads, 1 h at room temperature with 0.5 μM yUfd1, 3 μM Cdc48 (0.5 μM hexamer) and 1 μg K48 chains in 100 μL 50 mM Tris-HCl pH 7.5, 100 mM NaCl, 10% glycerol, 0.1% Triton X-100; chains detected by anti-Ub immunoblot, proteins by Ponceau S
Details in all cases: both partners purified
GST-yNpl4 I575A = molecular target: T1, GST-yNpl4 I575A (Saccharomyces cerevisiae, UniProt P33755 1-580, I575A)
T1 construct: Npl4 of Saccharomyces cerevisiae (yNpl4), full length; source: E. coli Rosetta (DE3) (pGEX-6P1), purified (Glutathione Sepharose FF, Resource Q); not shown: GST, N-terminal, kept
T1 sequence (looked up): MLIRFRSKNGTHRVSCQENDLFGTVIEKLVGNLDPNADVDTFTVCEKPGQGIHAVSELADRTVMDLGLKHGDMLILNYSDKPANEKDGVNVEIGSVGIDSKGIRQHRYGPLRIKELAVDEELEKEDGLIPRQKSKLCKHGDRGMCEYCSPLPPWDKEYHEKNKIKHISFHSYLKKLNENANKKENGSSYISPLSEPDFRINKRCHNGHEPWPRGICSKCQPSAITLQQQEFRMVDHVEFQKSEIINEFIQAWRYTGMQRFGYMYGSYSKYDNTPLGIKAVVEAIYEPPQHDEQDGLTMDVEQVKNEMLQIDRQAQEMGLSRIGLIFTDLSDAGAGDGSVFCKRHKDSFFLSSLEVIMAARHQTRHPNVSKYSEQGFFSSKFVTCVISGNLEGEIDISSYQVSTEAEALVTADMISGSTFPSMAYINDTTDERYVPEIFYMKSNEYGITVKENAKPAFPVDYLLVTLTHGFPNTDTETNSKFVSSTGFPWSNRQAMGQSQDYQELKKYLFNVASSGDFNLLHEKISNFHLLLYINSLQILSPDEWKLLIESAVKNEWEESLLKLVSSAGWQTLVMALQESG

GST-yNpl4 A494F = molecular target: T2, GST-yNpl4 A494F (Saccharomyces cerevisiae, UniProt P33755 1-580, A494F)
T2 construct: Npl4 of Saccharomyces cerevisiae (yNpl4), full length; source: E. coli Rosetta (DE3) (pGEX-6P1), purified (Glutathione Sepharose FF, Resource Q); not shown: GST, N-terminal, kept
T2 sequence (looked up): T1 sequence (looked up) with A494F, A575I

GST-yNpl4 M574A = molecular target: T3, GST-yNpl4 M574A (Saccharomyces cerevisiae, UniProt P33755 1-580, M574A)
T3 construct: Npl4 of Saccharomyces cerevisiae (yNpl4), full length; source: E. coli Rosetta (DE3) (pGEX-6P1), purified (Glutathione Sepharose FF, Resource Q); not shown: GST, N-terminal, kept
T3 sequence (looked up): T1 sequence (looked up) with M574A, A575I

Measured: binding result

B1: yUfd1 (full length, untagged) (natural protein, Saccharomyces cerevisiae, UniProt P53044 1-361, looked up)
chain: MFSGFSSFGGGNGFVNMPQTFEEFFRCYPIAMMNDRIRKDDANFGGKIFLPPSALSKLSMLNIRYPMLFKLTANETGRVTHGGVLEFIAEEGRVYLPQWMMETLGIQPGSLLQISSTDVPLGQFVKLEPQSVDFLDISDPKAVLENVLRNFSTLTVDDVIEISYNGKTFKIKILEVKPESSSKSICVIETDLVTDFAPPVGYVEPDYKALKAQQDKEKKNSFGKGQVLDPSVLGQGSMSTRIDYAGIANSSRNKLSKFVGQGQNISGKAPKAEPKQDIKDMKITFDGEPAKLDLPEGQLFFGFPMVLPKEDEESAAGSKSSEQNFQGQGISLRKSNKRKTKSDHDSSKSKAPKSPEVIEID
notes: Ufd1 of Saccharomyces cerevisiae (yUfd1), full length; codon-optimized synthetic cDNA; removal of GST by HRV3C is surmised; also called untagged Ufd1; source: E. coli Rosetta (DE3) (pGEX-6P1), purified
binds: all assays above

Reference: publication PMC6910952 (Nature Communications, 2019)
